This note sets out measurements from PMC12583452, “MCM5 UFMylation regulates replication origin firing and fork progression” (The EMBO Journal, 2025).

Experiment [1] addresses T1, FLAG-MCM5 (K583R), expressed in HeLa cells (human, UniProt P33992 1-734, K583R).
T1 construct: human MCM5, full-length cDNA in a pcDNA3.0 3XFLAG vector, point mutation K583R (UFMylation-resistant); also called KR; Lys583Arg; source: HeLa, transfected; in fixed cells (PLA) and in the chromatin fraction (IP)
T1 sequence (looked up): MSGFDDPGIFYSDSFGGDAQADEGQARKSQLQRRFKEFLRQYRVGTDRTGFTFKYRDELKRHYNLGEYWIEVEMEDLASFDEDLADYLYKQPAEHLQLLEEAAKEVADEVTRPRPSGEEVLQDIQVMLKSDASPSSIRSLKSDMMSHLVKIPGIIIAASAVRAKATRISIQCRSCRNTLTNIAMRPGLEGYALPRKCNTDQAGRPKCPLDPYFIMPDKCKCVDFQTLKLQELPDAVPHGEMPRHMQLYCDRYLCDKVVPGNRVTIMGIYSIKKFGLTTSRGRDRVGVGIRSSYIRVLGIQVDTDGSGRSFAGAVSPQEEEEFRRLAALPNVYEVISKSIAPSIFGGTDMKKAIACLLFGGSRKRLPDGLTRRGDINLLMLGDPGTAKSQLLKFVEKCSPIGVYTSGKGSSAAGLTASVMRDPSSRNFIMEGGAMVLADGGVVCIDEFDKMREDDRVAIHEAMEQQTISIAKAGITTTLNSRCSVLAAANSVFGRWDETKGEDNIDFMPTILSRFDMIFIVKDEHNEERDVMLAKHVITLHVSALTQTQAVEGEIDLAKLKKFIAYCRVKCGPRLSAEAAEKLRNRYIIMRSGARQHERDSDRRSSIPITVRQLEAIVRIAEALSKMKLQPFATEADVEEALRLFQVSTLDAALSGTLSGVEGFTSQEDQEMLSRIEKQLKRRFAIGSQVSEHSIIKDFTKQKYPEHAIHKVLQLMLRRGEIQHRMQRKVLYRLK
As to the kind of experiment: proximity ligation; HeLa cells transfected with FLAG-VEC, FLAG-MCM5 (WT) or FLAG-MCM5 (K583R), 1 h after release from double-thymidine block; PLA with CDC45. As to conditions: partners not purified.

Another experiment has as its target T2, His-UFL1 (UniProt O94874 1-794).
T2 construct: UFL1; construct pet28a-UFL1; also called pet28a-UFL1; source: E. coli BL21, purified (Ni-NTA agarose)
T2 sequence (looked up): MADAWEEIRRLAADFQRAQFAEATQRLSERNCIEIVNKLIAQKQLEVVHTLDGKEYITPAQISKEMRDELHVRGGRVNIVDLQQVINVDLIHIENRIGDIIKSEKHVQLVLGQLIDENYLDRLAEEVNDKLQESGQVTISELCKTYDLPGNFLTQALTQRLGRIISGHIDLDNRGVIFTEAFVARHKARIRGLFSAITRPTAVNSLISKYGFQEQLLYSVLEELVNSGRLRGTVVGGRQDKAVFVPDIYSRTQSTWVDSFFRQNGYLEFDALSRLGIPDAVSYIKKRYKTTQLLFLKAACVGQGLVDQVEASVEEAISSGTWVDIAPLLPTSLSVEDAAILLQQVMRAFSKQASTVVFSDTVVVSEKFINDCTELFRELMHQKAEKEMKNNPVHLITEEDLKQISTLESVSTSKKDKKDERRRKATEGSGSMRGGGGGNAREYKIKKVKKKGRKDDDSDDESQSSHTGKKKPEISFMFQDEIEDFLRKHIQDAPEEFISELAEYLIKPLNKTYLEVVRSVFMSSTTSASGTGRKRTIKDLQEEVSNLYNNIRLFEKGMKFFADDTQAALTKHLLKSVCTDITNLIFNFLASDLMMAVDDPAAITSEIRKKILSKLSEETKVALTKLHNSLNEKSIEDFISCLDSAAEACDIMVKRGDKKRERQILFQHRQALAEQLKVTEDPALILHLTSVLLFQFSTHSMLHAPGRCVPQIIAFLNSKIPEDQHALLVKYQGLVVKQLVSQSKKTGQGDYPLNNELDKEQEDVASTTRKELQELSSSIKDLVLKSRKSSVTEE
The experiment in a line: pull-down; GST pull-down in vitro with purified GST-MCM5 and His-UFL1; bead-associated proteins analysed by western blot. As to conditions: both partners purified.

Substitutions are numbered along the chain they refer to.

B1: CDC45 (endogenous, HeLa) (natural protein, human (endogenous in HeLa), UniProt O75419 1-566, looked up)
chain: MFVSDFRKEFYEVVQSQRVLLFVASDVDALCACKILQALFQCDHVQYTLVPVSGWQELETAFLEHKEQFHYFILINCGANVDLLDILQPDEDTIFFVCDTHRPVNVVNVYNDTQIKLLIKQDDDLEVPAYEDIFRDEEEDEEHSGNDSDGSEPSEKRTRLEEEIVEQTMRRRQRREWEARRRDILFDYEQYEYHGTSSAMVMFELAWMLSKDLNDMLWWAIVGLTDQWVQDKITQMKYVTDVGVLQRHVSRHNHRNEDEENTLSVDCTRISFEYDLRLVLYQHWSLHDSLCNTSYTAARFKLWSVHGQKRLQEFLADMGLPLKQVKQKFQAMDISLKENLREMIEESANKFGMKDMRVQTFSIHFGFKHKFLASDVVFATMSLMESPEKDGSGTDHFIQALDSLSRSNLDKLYHGLELAKKQLRATQQTIASCLCTNLVISQGPFLYCSLMEGTPDVMLFSRPASLSLLSKHLLKSFVCSTKNRRCKLLPLVMAAPLSMEHGTVTVVGIPPETDSSDRKNFFGRAFEKAAESTSSRMLHNHFDLSVIELKAEDRSKFLDALISLLS
notes: CDC45 (cell division cycle 45), endogenous in HeLa; also called cell division cycle 45; source: endogenous, HeLa (fixed cells for PLA; chromatin fraction)
Regarding B1, in experiment [1], the “fold decrease in PLA foci per cell against WT MCM5” value stood at 4 fold.

B2: GST-MCM5 (natural protein, human, UniProt P33992 1-734, looked up)
chain: T1 sequence (looked up) with R583K
notes: human MCM5 in pGEX-4T-1; the GST construct is probably the same insert; also called pGEX-4T-1 MCM5; WT GST-MCM5; source: E. coli BL21, purified (Glutathione-Sepharose 4B)
With B2, the binding result with His-UFL1 is “binds”.
